In patent publication US20150344570A1 (published 2015):

T1: FcgRIIa R (human, UniProt P12318 34-217)
T1 construct: extracellular domain; also called FcγRIIa R; FcγRIIa type R
T1 sequence (looked up): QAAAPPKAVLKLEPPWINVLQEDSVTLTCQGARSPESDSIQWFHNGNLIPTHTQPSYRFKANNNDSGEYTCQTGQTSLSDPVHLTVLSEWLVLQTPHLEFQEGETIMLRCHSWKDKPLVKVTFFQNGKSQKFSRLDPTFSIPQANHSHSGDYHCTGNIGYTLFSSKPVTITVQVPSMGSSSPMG

T2: FcgRIIa H (human, UniProt P12318 34-217)
T2 construct: extracellular domain; also called FcγRIIa H; FcγRIIa type H
T2 sequence (looked up): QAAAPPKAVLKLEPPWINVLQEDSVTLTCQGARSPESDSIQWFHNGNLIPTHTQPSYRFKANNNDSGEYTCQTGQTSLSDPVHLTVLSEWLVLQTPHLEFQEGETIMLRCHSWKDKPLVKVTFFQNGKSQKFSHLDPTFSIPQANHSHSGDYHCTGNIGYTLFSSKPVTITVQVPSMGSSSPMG

T3: FcgRIIb (human, UniProt P31994 43-217)
T3 construct: extracellular domain; also called FcγRIIb; CD32B
T3 sequence (looked up): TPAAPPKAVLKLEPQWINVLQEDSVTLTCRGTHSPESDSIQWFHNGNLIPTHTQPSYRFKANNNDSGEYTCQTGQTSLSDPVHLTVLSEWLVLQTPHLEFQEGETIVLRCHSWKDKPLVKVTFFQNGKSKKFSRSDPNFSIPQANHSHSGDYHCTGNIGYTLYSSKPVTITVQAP


Tests used:
Test in all cases: SPR (Biacore), antibody captured, FcgR as analyte
FcgRIa = target: T4, FcgRIa (human, UniProt P12314 16-292)
T4 construct: extracellular domain; also called FcγRIa; FcγRI
T4 sequence (P12314 16-292): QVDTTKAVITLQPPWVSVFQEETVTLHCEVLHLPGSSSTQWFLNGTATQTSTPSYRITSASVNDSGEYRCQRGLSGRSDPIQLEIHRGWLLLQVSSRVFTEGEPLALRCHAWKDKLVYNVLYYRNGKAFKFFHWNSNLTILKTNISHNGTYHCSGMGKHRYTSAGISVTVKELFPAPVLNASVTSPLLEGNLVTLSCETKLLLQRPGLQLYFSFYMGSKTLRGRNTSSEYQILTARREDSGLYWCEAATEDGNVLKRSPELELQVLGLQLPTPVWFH
Method: (§1) H240-Kn113 (SEQ ID NO: 92) resulting from introduction of Y234E and Y235N into H240-Kn072, H240-Kn115 (SEQ ID NO: 93) resulting from introduction of S239M into H240-Kn072, and H240-Kn125 (SEQ ID NO: 94) resulting from introduction of Y235Q and S239M into H240-Kn072 were prepared according to the method described in Reference Example 1. H240-Kn113/H240-Hl076/L73-k0, H240-Kn115/H240-Hl076/L73-k0, and H240-Kn125/H240-Hl076/L73-k0 were prepared by combining H240-Hl076 as an H chain, L73-k0 as the L chain, and H240-Kn113, H240-Kn115, and H240-Kn125 as the other H chain according to the method described in Reference Example 1.
(§2) Analysis of interaction between objective antibody and the FcγR was carried out using Biacore T100 (GE Healthcare), Biacore T200, Biacore A100, and Biacore 4000. HBS-EP+ (GE Healthcare) was used as the running buffer, and the measurement temperature was set to 25° C. Chips produced by immobilizing the antigen peptide by the amine coupling method to a Series S sensor Chip CM5 (GE Healthcare), chips produced by allowing preliminarily biotinylated antigen peptides to interact with and immobilize onto a Series S Sensor Chip SA (certified) (GE Healthcare), chips produced by immobilizing Protein L (ACTIGEN, BioVision) to Series S Sencor Chip CM5 (GE Healthcare), or chips produced by immobilizing Protein A/G (Thermo Scientific) to Series S Sencor Chip CM5 (GE Healthcare) were used. Antibodies of interest were captured onto these chips, and allowed to interact to each FcγR diluted with running buffer. To regenerate and repeatedly use the chip, the antibodies captured onto the chip were washed off by reacting 10 mM glycine-HCl, pH 1.5.

FcgRIIa R = target: T1, FcgRIIa R
Method: as §1, §2

FcgRIIa H = target: T2, FcgRIIa H
Method: as §1, §2

FcgRIIb = target: T3, FcgRIIb
Method: as §1, §2

FcgRIIIa F = target: T5, FcgRIIIa F (human, UniProt P08637 17-208)
T5 construct: extracellular domain; polymorphic site made after J. Clin. Invest; also called FcγRIIIa F
T5 sequence (P08637 17-208): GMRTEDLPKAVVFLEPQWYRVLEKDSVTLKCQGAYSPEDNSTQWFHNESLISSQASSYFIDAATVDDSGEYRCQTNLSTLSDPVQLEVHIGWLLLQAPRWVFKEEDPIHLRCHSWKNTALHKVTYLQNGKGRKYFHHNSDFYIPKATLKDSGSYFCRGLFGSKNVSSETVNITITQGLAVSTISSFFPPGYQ
Method: as §1, §2

FcgRIIIa V = target: T6, FcgRIIIa V (human, UniProt P08637 17-208)
T6 construct: extracellular domain; polymorphic site made after J. Clin. Invest; also called FcγRIIIa V
T6 sequence (P08637 17-208 F176V limits assumed): as the sequence (P08637 17-208) above, with F160V counted along it
Method: as §1, §2

| Kd (FcgRIa) [nM] | Kd (FcgRIIa R) [nM] | Kd (FcgRIIa H) [nM] | Kd (FcgRIIb) [nM] | Kd (FcgRIIIa F) [nM] | Kd (FcgRIIIa V) [nM] | Binder |
| --- | --- | --- | --- | --- | --- | --- |
| 0.21 | 600 | 350 | 5000 | 1.7 | 0.62 | H240-Kn113/H240-Hl076/L73-k0 (antibody, human IgG1, kappa, H240-Kn113: Y234E and Y235N introduced into H240-Kn072) heavy 1: QDQLVQSGAEVKKPGASVKVSCKASGFNIKDTYIQWVRQAPGQGLEWMGRIDPLRKQTKYREKFEGRVTITADTSTNTAYMELSSLRSEDTAVYYCVRSGREFDYWGQGTLVTVSSASTKGPSVFPLAPSSKSTSGGTAALGCLVKDYFPEPVTVSWNSGALTSGVHTFPAVLQSSGLYSLSSVVTVPSSSLGTQTYICNVNHKPSNTKVDKKVEPKSCDKTHTCPPCPAPEENWGPSVFLFPPKPKDTLMISRTPEVTCVVVDVSDEEPEVKFNWYVDGVEVHNAKTKPREEQYNATYRVVSVLTVLHQDWLNGKEYKCKVSNKALPAPIEKTISKAKGQPREPQVCTLPPSRDELTKNQVSLWCLVKGFYPSDIAVEWESNGQPENNYKTTPPVLDSDGSFFLYSKLTVDKSRWQQGNVFSCSVMHEALHNHYTQKSLSLSP heavy 2: QDQLVQSGAEVKKPGASVKVSCKASGFNIKDTYIQWVRQAPGQGLEWMGRIDPLRKQTKYREKFEGRVTITADTSTNTAYMELSSLRSEDTAVYYCVRSGREFDYWGQGTLVTVSSASTKGPSVFPLAPSSKSTSGGTAALGCLVKDYFPEPVTVSWNSGALTSGVHTFPAVLQSSGLYSLSSVVTVPSSSLGTQTYICNVNHKPSNTKVDKKVEPKSCDKTHTCPPCPAPELLGGPSVFLFPPKPKDTLMISRTPEVTCVVVDVSHEEPEVKFNWYVDGVEVHNAKTKPREEQYNSTYRVVSVLTVLHQDWLNGKEYKCKVSNDALPMPIEETISKAKGQPREPQVYTLPPSRCELTKNQVSLSCAVKGFYPSDIAVEWESNGQPENNYKTTPPVLDSDGSFFLVSKLTVDKSRWQQGNVFSCSVMHEALHNHYTQKSLSLSP light: DIQMTQSPSSLSASVGDRVTITCRASQDIHKYIAWYQQKPGQAPRLLIQYTSTLQPGVPSRFSGSGSGTDYTFTISSLQPEDIATYYCLQYEQLRTFGGGTKVEIKRTVAAPSVFIFPPSDEQLKSGTASVVCLLNNFYPREAKVQWKVDNALQSGNSQESVTEQDSKDSTYSLSSTLTLSKADYEKHKVYACEVTHQGLSSPVTKSFNRGEC |
| 0.27 | 130 | 62 | 1300 | 1.4 | 0.43 | H240-Kn115/H240-Hl076/L73-k0 (antibody, human IgG1, kappa, H240-Kn115: S239M introduced into H240-Kn072) heavy 1: QDQLVQSGAEVKKPGASVKVSCKASGFNIKDTYIQWVRQAPGQGLEWMGRIDPLRKQTKYREKFEGRVTITADTSTNTAYMELSSLRSEDTAVYYCVRSGREFDYWGQGTLVTVSSASTKGPSVFPLAPSSKSTSGGTAALGCLVKDYFPEPVTVSWNSGALTSGVHTFPAVLQSSGLYSLSSVVTVPSSSLGTQTYICNVNHKPSNTKVDKKVEPKSCDKTHTCPPCPAPEYYWGPMVFLFPPKPKDTLMISRTPEVTCVVVDVSDEEPEVKFNWYVDGVEVHNAKTKPREEQYNATYRVVSVLTVLHQDWLNGKEYKCKVSNKALPAPIEKTISKAKGQPREPQVCTLPPSRDELTKNQVSLWCLVKGFYPSDIAVEWESNGQPENNYKTTPPVLDSDGSFFLYSKLTVDKSRWQQGNVFSCSVMHEALHNHYTQKSLSLSP heavy 2: QDQLVQSGAEVKKPGASVKVSCKASGFNIKDTYIQWVRQAPGQGLEWMGRIDPLRKQTKYREKFEGRVTITADTSTNTAYMELSSLRSEDTAVYYCVRSGREFDYWGQGTLVTVSSASTKGPSVFPLAPSSKSTSGGTAALGCLVKDYFPEPVTVSWNSGALTSGVHTFPAVLQSSGLYSLSSVVTVPSSSLGTQTYICNVNHKPSNTKVDKKVEPKSCDKTHTCPPCPAPELLGGPSVFLFPPKPKDTLMISRTPEVTCVVVDVSHEEPEVKFNWYVDGVEVHNAKTKPREEQYNSTYRVVSVLTVLHQDWLNGKEYKCKVSNDALPMPIEETISKAKGQPREPQVYTLPPSRCELTKNQVSLSCAVKGFYPSDIAVEWESNGQPENNYKTTPPVLDSDGSFFLVSKLTVDKSRWQQGNVFSCSVMHEALHNHYTQKSLSLSP light: DIQMTQSPSSLSASVGDRVTITCRASQDIHKYIAWYQQKPGQAPRLLIQYTSTLQPGVPSRFSGSGSGTDYTFTISSLQPEDIATYYCLQYEQLRTFGGGTKVEIKRTVAAPSVFIFPPSDEQLKSGTASVVCLLNNFYPREAKVQWKVDNALQSGNSQESVTEQDSKDSTYSLSSTLTLSKADYEKHKVYACEVTHQGLSSPVTKSFNRGEC |
| 0.24 | 380 | 190 | 4200 | 1.2 | 0.37 | H240-Kn125/H240-Hl076/L73-k0 (antibody, human IgG1, kappa, H240-Kn125: Y235Q and S239M introduced into H240-Kn072) heavy 1: QDQLVQSGAEVKKPGASVKVSCKASGFNIKDTYIQWVRQAPGQGLEWMGRIDPLRKQTKYREKFEGRVTITADTSTNTAYMELSSLRSEDTAVYYCVRSGREFDYWGQGTLVTVSSASTKGPSVFPLAPSSKSTSGGTAALGCLVKDYFPEPVTVSWNSGALTSGVHTFPAVLQSSGLYSLSSVVTVPSSSLGTQTYICNVNHKPSNTKVDKKVEPKSCDKTHTCPPCPAPEYQWGPMVFLFPPKPKDTLMISRTPEVTCVVVDVSDEEPEVKFNWYVDGVEVHNAKTKPREEQYNATYRVVSVLTVLHQDWLNGKEYKCKVSNKALPAPIEKTISKAKGQPREPQVCTLPPSRDELTKNQVSLWCLVKGFYPSDIAVEWESNGQPENNYKTTPPVLDSDGSFFLYSKLTVDKSRWQQGNVFSCSVMHEALHNHYTQKSLSLSP heavy 2: QDQLVQSGAEVKKPGASVKVSCKASGFNIKDTYIQWVRQAPGQGLEWMGRIDPLRKQTKYREKFEGRVTITADTSTNTAYMELSSLRSEDTAVYYCVRSGREFDYWGQGTLVTVSSASTKGPSVFPLAPSSKSTSGGTAALGCLVKDYFPEPVTVSWNSGALTSGVHTFPAVLQSSGLYSLSSVVTVPSSSLGTQTYICNVNHKPSNTKVDKKVEPKSCDKTHTCPPCPAPELLGGPSVFLFPPKPKDTLMISRTPEVTCVVVDVSHEEPEVKFNWYVDGVEVHNAKTKPREEQYNSTYRVVSVLTVLHQDWLNGKEYKCKVSNDALPMPIEETISKAKGQPREPQVYTLPPSRCELTKNQVSLSCAVKGFYPSDIAVEWESNGQPENNYKTTPPVLDSDGSFFLVSKLTVDKSRWQQGNVFSCSVMHEALHNHYTQKSLSLSP light: DIQMTQSPSSLSASVGDRVTITCRASQDIHKYIAWYQQKPGQAPRLLIQYTSTLQPGVPSRFSGSGSGTDYTFTISSLQPEDIATYYCLQYEQLRTFGGGTKVEIKRTVAAPSVFIFPPSDEQLKSGTASVVCLLNNFYPREAKVQWKVDNALQSGNSQESVTEQDSKDSTYSLSSTLTLSKADYEKHKVYACEVTHQGLSSPVTKSFNRGEC |
